In US20260062456A1:

Experiments:
PD-1 (human) = PD-1 (human) (UniProt Q15116); experiment: cell-based or functional assay
[1] = target: human PD-1 stably expressed on Jurkat/IL-2 reporter cells (Jurkat/PD-1 cells) (human) (UniProt Q15116); experiment: flow cytometry, Jurkat/PD-1 cells, MFI vs wildtype PD-L1 IgV-Fc
[2] = target: human PD-1 stably expressed on Jurkat/IL-2 reporter cells (Jurkat/PD-1 cells) (human) (UniProt Q15116); experiment: flow cytometry, Jurkat/PD-1 cells
[3] = target: TIGIT/CD112R/PD1 (Jurkat/PD-1/TIGIT cells carrying PD-1, TIGIT and endogenous CD112R); experiment: flow cytometry, Jurkat/PD-1/TIGIT cells
[4] = target: human PD-1 and human TIGIT both stably expressed on Jurkat cells (Jurkat/PD-1/TIGIT cells); experiment: flow cytometry, Jurkat/PD-1/TIGIT cells, 20 nM

Sequence of PD-1 (human) (Q15116 25-288): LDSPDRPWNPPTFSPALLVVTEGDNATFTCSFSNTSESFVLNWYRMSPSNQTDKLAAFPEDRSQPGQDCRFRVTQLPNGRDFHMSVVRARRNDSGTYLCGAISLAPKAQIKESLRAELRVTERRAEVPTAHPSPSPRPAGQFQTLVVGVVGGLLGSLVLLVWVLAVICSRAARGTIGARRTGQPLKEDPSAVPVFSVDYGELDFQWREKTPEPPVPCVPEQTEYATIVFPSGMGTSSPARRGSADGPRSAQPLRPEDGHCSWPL
Sequence of human PD-1 stably expressed on Jurkat/IL-2 reporter cells (Jurkat/PD-1 cells) (human) (Q15116 25-288 limits assumed): as the sequence (Q15116 25-288) above

Binder | Average Relative Luminescence Units (PD-1 (human)) [RLU] | Fold increase in IL2 reporter signal (PD-1 (human)) [fold] | further results
variant PD-L1 IgV-Fc P6S, N45T, N78I, I83T (Fc fusion) FTVTVSKDLYVVEYGSNMTIECKFPVEKQLDLAALIVYWEMEDKTIIQFVHGEEDLKVQHSSYRQRARLLKDQLSLGIAALQTTDVKLQDAGVYRCMISYGGADYKRITVKVNAAAAEPKSSDKTHTCPPCPAPELLGGPSVFLFPPKPKDTLMISRTPEVTCVVVDVSHEDPEVKFNWYVDGVEVHNAKTKPCEEQYGSTYRCVSVLTVLHQDWLNGKEYKCKVSNKALPAPIEKTISKAKGQPREPQVYTLPPSREEMTKNQVSLTCLVKGFYPSDIAVEWESNGQPENNYKTTPPVLDSDGSFFLYSKLTVDKSRWQQGNVFSCSVMHEALHNHYTQKSLSLSPGK | 2250 | 1.01 | 
variant PD-L1 IgV-Fc S75P, K106R (Fc fusion) FTVTVPKDLYVVEYGSNMTIECKFPVEKQLDLAALIVYWEMEDKNIIQFVHGEEDLKVQHSSYRQRARLLKDQLPLGNAALQITDVKLQDAGVYRCMISYGGADYRRITVKVNAAAAEPKSSDKTHTCPPCPAPELLGGPSVFLFPPKPKDTLMISRTPEVTCVVVDVSHEDPEVKFNWYVDGVEVHNAKTKPCEEQYGSTYRCVSVLTVLHQDWLNGKEYKCKVSNKALPAPIEKTISKAKGQPREPQVYTLPPSREEMTKNQVSLTCLVKGFYPSDIAVEWESNGQPENNYKTTPPVLDSDGSFFLYSKLTVDKSRWQQGNVFSCSVMHEALHNHYTQKSLSLSPGK | 2130 | 0.95 | 
variant PD-L1 IgV-Fc I20L, N45T, V110M (Fc fusion) FTVTVPKDLYVVEYGSNMTLECKFPVEKQLDLAALIVYWEMEDKTIIQFVHGEEDLKVQHSSYRQRARLLKDQLSLGNAALQITDVKLQDAGVYRCMISYGGADYKRITMKVNAAAAEPKSSDKTHTCPPCPAPELLGGPSVFLFPPKPKDTLMISRTPEVTCVVVDVSHEDPEVKFNWYVDGVEVHNAKTKPCEEQYGSTYRCVSVLTVLHQDWLNGKEYKCKVSNKALPAPIEKTISKAKGQPREPQVYTLPPSREEMTKNQVSLTCLVKGFYPSDIAVEWESNGQPENNYKTTPPVLDSDGSFFLYSKLTVDKSRWQQGNVFSCSVMHEALHNHYTQKSLSLSPGK | 2210 | 0.99 | 
variant PD-L1 IgV-Fc A33D, V50A (Fc fusion) FTVTVPKDLYVVEYGSNMTIECKFPVEKQLDLDALIVYWEMEDKNIIQFAHGEEDLKVQHSSYRQRARLLKDQLSLGNAALQITDVKLQDAGVYRCMISYGGADYKRITVKVNAAAAEPKSSDKTHTCPPCPAPELLGGPSVFLFPPKPKDTLMISRTPEVTCVVVDVSHEDPEVKFNWYVDGVEVHNAKTKPCEEQYGSTYRCVSVLTVLHQDWLNGKEYKCKVSNKALPAPIEKTISKAKGQPREPQVYTLPPSREEMTKNQVSLTCLVKGFYPSDIAVEWESNGQPENNYKTTPPVLDSDGSFFLYSKLTVDKSRWQQGNVFSCSVMHEALHNHYTQKSLSLSPGK | 2250 | 1.01 | 
variant PD-L1 IgV-Fc A33D/S75P (IgV SEQ ID NO 285) (Fc fusion) FTVTVPKDLYVVEYGSNMTIECKFPVEKQLDLDALIVYWEMEDKNIIQFVHGEEDLKVQHSSYRQRARLLKDQLPLGNAALQITDVKLQDAGVYRCVISYGGADYKRITVKVNAAAAEPKSSDKTHTCPPCPAPELLGGPSVFLFPPKPKDTLMISRTPEVTCVVVDVSHEDPEVKFNWYVDGVEVHNAKTKPCEEQYGSTYRCVSVLTVLHQDWLNGKEYKCKVSNKALPAPIEKTISKAKGQPREPQVYTLPPSREEMTKNQVSLTCLVKGFYPSDIAVEWESNGQPENNYKTTPPVLDSDGSFFLYSKLTVDKSRWQQGNVFSCSVMHEALHNHYTQKSLSLSPGK |  |  | Fold increase over wildtype PD-L1 IgV-Fc [1]: 0.1 fold; MFI at 50 nM [2]: 306 MFI
variant PD-L1 IgV-Fc A33D, S75P, D104G (Fc fusion) FTVTVPKDLYVVEYGSNMTIECKFPVEKQLDLDALIVYWEMEDKNIIQFVHGEEDLKVQHSSYRQRARLLKDQLPLGNAALQITDVKLQDAGVYRCMISYGGAGYKRITVKVNAAAAEPKSSDKTHTCPPCPAPELLGGPSVFLFPPKPKDTLMISRTPEVTCVVVDVSHEDPEVKFNWYVDGVEVHNAKTKPCEEQYGSTYRCVSVLTVLHQDWLNGKEYKCKVSNKALPAPIEKTISKAKGQPREPQVYTLPPSREEMTKNQVSLTCLVKGFYPSDIAVEWESNGQPENNYKTTPPVLDSDGSFFLYSKLTVDKSRWQQGNVFSCSVMHEALHNHYTQKSLSLSPGK | 2170 | 0.97 | 
variant PD-L1 IgV-Fc A33D, S75P (SEQ ID NO 285) (Fc fusion) FTVTVPKDLYVVEYGSNMTIECKFPVEKQLDLDALIVYWEMEDKNIIQFVHGEEDLKVQHSSYRQRARLLKDQLPLGNAALQITDVKLQDAGVYRCVISYGGADYKRITVKVNAAAAEPKSSDKTHTCPPCPAPELLGGPSVFLFPPKPKDTLMISRTPEVTCVVVDVSHEDPEVKFNWYVDGVEVHNAKTKPCEEQYGSTYRCVSVLTVLHQDWLNGKEYKCKVSNKALPAPIEKTISKAKGQPREPQVYTLPPSREEMTKNQVSLTCLVKGFYPSDIAVEWESNGQPENNYKTTPPVLDSDGSFFLYSKLTVDKSRWQQGNVFSCSVMHEALHNHYTQKSLSLSPGK | 2170 | 0.97 | 
variant PD-L1 IgV-Fc A33D, N45T, N78I (Fc fusion) FTVTVPKDLYVVEYGSNMTIECKFPVEKQLDLDALIVYWEMEDKTIIQFVHGEEDLKVQHSSYRQRARLLKDQLSLGIAALQITDVKLQDAGVYRCMISYGGADYKRITVKVNAAAAEPKSSDKTHTCPPCPAPELLGGPSVFLFPPKPKDTLMISRTPEVTCVVVDVSHEDPEVKFNWYVDGVEVHNAKTKPCEEQYGSTYRCVSVLTVLHQDWLNGKEYKCKVSNKALPAPIEKTISKAKGQPREPQVYTLPPSREEMTKNQVSLTCLVKGFYPSDIAVEWESNGQPENNYKTTPPVLDSDGSFFLYSKLTVDKSRWQQGNVFSCSVMHEALHNHYTQKSLSLSPGK | 1970 | 0.89 | 
non-stack variant CD155 IgV-Fc control (P18S/S65W/S67A/L104Q/G111R) (Fc fusion) WPPPGTGDVVVQAPTQVSGFLGDSVTLPCYLQVPNMEVTHVSQLTWARHGESGSMAVFHQTQGPWYAESKRLEFVAARLGAELRNASLRMFGLRVEDEGNYTCQFVTFPQRSRSVDIWLRVLAAAEPKSSDKTHTCPPCPAPELLGGPSVFLFPPKPKDTLMISRTPEVTCVVVDVSHEDPEVKFNWYVDGVEVHNAKTKPCEEQYGSTYRCVSVLTVLHQDWLNGKEYKCKVSNKALPAPIEKTISKAKGQPREPQVYTLPPSREEMTKNQVSLTCLVKGFYPSDIAVEWESNGQPENNYKTTPPVLDSDGSFFLYSKLTVDKSRWQQGNVFSCSVMHEALHNHYTQKSLSLSPGK |  |  | MFI at 33.3nM [3]: 961 MFI; MFI at 20 nM [4]: 7910 MFI
